In paper PMC9527319, “^99mTc-labeled iRGD for single-positron emission computed tomography imaging of triple-negative breast cancer” (Frontiers in Bioengineering and Biotechnology, 2022):
Like-named read-outs stand apart in the source and are kept apart here. Bridge positions count the residues as written; N and C are the ends. Peptide text beside a SMILES is read from it. * marks the point of attachment. HYNIC = NNc1ccc(C(=O)*)cn1

Assays:
[1] = In vitro stability of 99mTc-labeled peptides in PBS and cysteine solution (RCP by TLC); type: physicochemical; conditions: PBS (0.1 M, pH = 7.4) and cysteine solution (100-fold molar excess over the peptides), room temperature, within 6 h, RCP by TLC (silica gel 60 F254, 50% acetonitrile)
Method: (§1) HYNIC-iRGD, HYNIC-iRGE, and HYNIC-CG7C were labeled with ^99mTc according to previously published procedures in the literature ([Bohn et al., 2013]; [Xu et al., 2017]; [Gong et al., 2022]). In brief, a mixture of 50 μl HYNIC-modified peptide (1 mg/ml in water), 0.5 ml EDDA solution (20 mg/ml in 0.1 M NaOH), 0.5 ml tricine solution (40 mg/ml in 0.2 M PBS, pH = 6.0), 1 ml Na^99mTcO4 solution (50 mCi/ml), and 50 μl SnCl2 solution (1 mg/ml in 0.1 M HCl) were heated at 100°C for 15 min. After cooling to room temperature, the mixture was analyzed using instant thin-layer chromatography (TLC) and radio-high-performance liquid chromatography (radio-HPLC). The ^99mTc-labeled peptides were characterized using an Agilent 1260 HPLC system (Agilent Technologies, United States) equipped with a UV-vis detector (λ = 220 nm) and a radioactive flow detector (BioScan, United States). A SunFire C18 column (5 μm, 4.6 × 250 mm, Waters, Japan) was used at a flow rate of 1 ml/min with the following gradient method: 0.1% Trifluoroacetic acid in H2O and CH3CN (0–20 min, 10%–35% CH3CN) for iRGD and iRGE, and 0.1% trifluoroacetic acid in H2O and CH3CN (0–20 min, 25%–60% CH3CN) for CG7C. Their RCPs were determined by radio-HPLC and rapidly analyzed by TLC in a system consisting of silica gel 60 F254 TLC plates (Merck, Germany) and 50% acetonitrile as mobile phase. […]

[2] = In vitro stability of 99mTc-labeled peptides in FBS (RCP by TLC); type: in vitro ADME, bovine; conditions: FBS at 37°C, within 6 h, RCP by TLC (silica gel 60 F254, 50% acetonitrile)
Method: as §1

4T1 tumor-bearing mice [3] = conditions: for course of SPECT signal in tumor with time: i.v. tail vein, 0.5, 1, 2 and 4 h post-injection; for tumor accumulation (SPECT): i.v. tail vein, 0.5 h post-injection
Excerpt: Murine breast cancer cells 4T1 were purchased from Procell Life Science and Technology Co., Ltd. (Wuhan, China) and maintained in RPMI-1640 supplemented with 10% FBS. Four-week-old female BALB/c nude mice (18–20 g) and healthy ICR mice (20–22 g) were purchased from Shanghai Laboratory Animal Center of the Chinese Academy of Sciences (Shanghai, China). To establish breast cancer models, four-week-old female BALB/c nude mice were subcutaneously injected in their right-side flanks with 5 × 10^6 4T1 cells suspended in 100 μl of PBS. When the tumor diameter reached 0.8–1.2 cm, the mice were used for animal experiments. All animal experiments were repeated three times and performed according to the protocols established by the Ethics Committee of Shanghai General Hospital.
The 4T1 tumor-bearing mice were randomly divided into three groups (three mice per group). After anesthetization with pentobarbital sodium (40 mg/kg), 200 μl of ^99mTc-HYNIC-iRGD, ^99mTc-HYNIC-iRGE, or ^99mTc-HYNIC-CG7C ([^99mTc] = 10 mCi/ml) was injected via the tail vein. SPECT images were acquired at 0.5, 1, 2, and 4 h post-injection using a SPECT imaging system equipped with a Xeleris 2.0 workstation and low-energy general-purpose collimators (Infinia, Denver, CO, United States).

[4] = Pharmacokinetics (blood radioactivity-time curve); type: in vivo; conditions: healthy ICR mice; for clear-phase half-life t1/2(β) / distribution phase half-life t1/2(α): i.v., blood, two-compartment model (DAS 2.0); for tissue uptake at 1 min / tissue uptake at 0.5 h / tissue uptake at 3 h: mouse, whole blood, iv, 20 uCi, total radioactivity, i.v. 20 μCi in 200 μl PBS, γ-counter, read-out: radioactivity level in blood; for tissue uptake at 1 min / tissue uptake at 0.5 h: mean ± SD; for tissue uptake at 0.5 h: 30 min; for tissue uptake at 3 h: 180 min
Method: The pharmacokinetic profiles of ^99mTc-HYNIC-iRGD and ^99mTc-HYNIC-iRGE were evaluated in healthy ICR mice. Each mouse was intravenously injected with ^99mTc-HYNIC-iRGD or ^99mTc-HYNIC-iRGE at a dose of 20 μCi in 200 μl PBS solution. Blood samples ([…]) from each mouse were immediately collected and weighed at designated times (1, 2, 5, 15, 30, 60, 120, and 180 min), and the radioactivity was measured using a γ-counter to calculate the %ID/g. Moreover, the pharmacokinetic data were analyzed by DAS 2.0 (Shanghai, China) using a two-compartment model to calculate the half-lives of ^99mTc-HYNIC-iRGD and ^99mTc-HYNIC-iRGE in blood.

4T1 tumor-bearing mice [5] = experiment: Biodistribution (gamma-counter, %ID/g); type: in vivo
Method: The radioactivity counts of all samples were measured using a γ-counter (CAPINTEC, United States) and expressed as counts per minute after correction for decay. The results are shown as the percentage of injection dose/gram (%ID/g) of wet tissue for each time point in each group.

[6] = i.v. 20 μCi, 4 h post-injection

SMILES	changes in RCPs (stability in vitro) [1]	changes in RCPs (stability in vitro) [2]	course of SPECT signal in tumor with time (4T1 tumor-bearing mice [3]; 4T1 tumor-bearing nude mice)	tumor accumulation (SPECT) (4T1 tumor-bearing mice [3]; 4T1 tumor-bearing nude mice)	radioactivity in bladder and kidneys (SPECT; clearance through the urinary system) (4T1 tumor-bearing mice [3]; mouse, in vivo, iv)	clear-phase half-life t1/2(β) [4] [min]	distribution phase half-life t1/2(α) [4] [min]	tissue uptake at 1 min [4] [%ID/g]	tissue uptake at 0.5 h [4] [%ID/g]	tissue uptake at 3 h [4] [%ID/g]	tumor-to-muscle (T/M) ratio (4T1 tumor-bearing mice [5]; i.v. 20 μCi, 0.5, 1, 2 and 4 h post-injection)	tumor-to-kidney (T/K) ratio (4T1 tumor-bearing mice [5]; i.v. 20 μCi, 0.5–4 h post-injection)	tumor-to-blood (T/B) ratio (4T1 tumor-bearing mice [5]; [6])	tumor-to-lung (T/Lu) ratio (4T1 tumor-bearing mice [5]; [6])	radioactivity in bladder and kidneys (SPECT; clearance through the urinary system) (4T1 tumor-bearing mice [3]; 4T1 tumor-bearing nude mice, i.v., each time point 0.5–4 h)
N=C(N)NCCC[C@@H]1NC(=O)[C@@H](NC(=O)c2ccc(NN)nc2)CSSC[C@@H](C(=O)O)NC(=O)[C@H](CC(=O)O)NC(=O)[C@@H]2CCCN2C(=O)CNC(=O)[C@H](CCCCN)NC(=O)[C@H](CCC(=O)O)NC(=O)CNC1=O [^99mTc-HYNIC-iRGE, metal not drawn] ({HYNIC}-CRGEKGPDC-OH; disulfide 1-9 (inferred); N-terminus and C-terminus assumed)	no obvious changes in RCPs	no obvious changes in RCPs	gradually faded with time	distinct tumor accumulation	high radioactivity	10.56	0.88	19.3 ± 2.52	1.06 ± 0.08	~0.1	–	–	–	–	–
N=C(N)NCCC[C@@H]1NC(=O)[C@@H](NC(=O)c2ccc(NN)nc2)CSSC[C@@H](C(=O)O)NC(=O)[C@H](CC(=O)O)NC(=O)[C@@H]2CCCN2C(=O)CNC(=O)[C@H](CCCCN)NC(=O)[C@H](CC(=O)O)NC(=O)CNC1=O [^99mTc-HYNIC-iRGD, metal not drawn]	no obvious changes in RCPs	no obvious changes in RCPs	increase in tumor accumulation of radioactivity	distinct tumor accumulation	–	12.54	1.43	14.3 ± 0.95	1.26 ± 0.11	~0.1	higher in mice treated with ^99mTc-HYNIC-iRGD than in those treated with ^99mTc-HYNIC-iRGE at each time point	much higher than for ^99mTc-HYNIC-iRGE and ^99mTc-HYNIC-CG7C	1.8	1.9	high radioactivity
